# Test results reported in patent US20120201826A1 (NOV IMMUNE S A, published 2012).
# Residue numbers refer to the chain shown, from its start.
# T1: recombinant human RANTES (huRANTES, Peprotech) (human, UniProt P13501 24-91)
# T1 sequence: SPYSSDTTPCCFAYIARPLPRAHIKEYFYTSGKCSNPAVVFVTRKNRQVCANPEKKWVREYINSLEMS
# B1: C10 antibody, IgG1 format (antibody, V domains shown)
# VH: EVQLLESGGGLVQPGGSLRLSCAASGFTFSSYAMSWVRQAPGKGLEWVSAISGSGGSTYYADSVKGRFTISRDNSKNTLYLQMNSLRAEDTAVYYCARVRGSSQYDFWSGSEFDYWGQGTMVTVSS
# VL: SYVLTQPPSVSVAPGKTASISCGGDNIGGQNVHWYQQKPGQAPVLVIYYDTDRPSGIPERFSGSNSGNTATLSISRVEAADEADYYCQVWDVDSDHPWVFGGGTKLTVL
# B2: A5 antibody, IgG1 format (antibody, V domains shown)
# VH: QVQLVQSGAEVKKPGASVKVSCKVSGYALSELSIHWVRQAPGKGLEWMSYIDPEDGEPIYAQKFQGRATMTEDSSTDTAYMEMGSLTSDDTAVYYCAGVTGSTSDAFDLWGRGTLVTVSS
# VL: SYVLTQDPSVSVAPGQTARITCGGANLWGLGVHWYQQKSGQAPVLVVSDNSDRASGIPERFSGSNSGTTATLTLSRVEVGDEADYYCQVWDSSSDHWVFGGRTKLTVL
# B3: BG11 antibody, IgG1 format (antibody, V domains shown)
# VH: QVQLVQSGAEVKKPGASVKVSCKVSGYTLTELSMHWVRQAPGKGLEWMGGFDPEDGETIYAQKFQGRVTMTEDTSTDTAYMELSSLRSEDTAVYYCATYSGSSGWWAFDIWGQGTMVTVSS
# VL: SSELTQDPAVSVALGQTVRITCQGDSLRSYYASWYQQKPGQAPVLVIYGKNNRPSGIPDRFSGSSSGNTASLTITGAQAEDEADYYCQTWGTGIWVFGGGTKLTVL
# B4: E6 antibody, IgG1 format (antibody, V domains shown)
# VH: QVQLVQSGAEVEKPGASVKVSCRVSGYPLTEIAIHWVRQAPGKGLEWMGSFEPEDAEAIYAQRFQGRVTMTEETSANTAYMELSSLRSEDTAVYFCATDPYYASSGSNYMEVWGRGTLVTVSS
# VL: NFMLTQPHSVSESPGKTVTISCTGSGGSISSNYVQWYRQRPGSAPSTVIYEDDQRPSGVPDRISGSIDSSSNSASLTISGLTTEDEADYYCHSYDGNNRWVFGGGTKLTVL
# B5: E10 antibody, IgG1 format (antibody, V domains shown)
# VH: QVQLVESGGGVVQPGRSLRLSCAASGFTFSSYAMHWVRQAPGKGLEWVAVISYDGSNKYYADSVKGRFSISRDNSKNTLYLQMNSLRAEDTAVYYCARETFPHYYYYYMDVWGKGTMVTVSS
# VL: SYVLTQPPSVSVAPGQTARISCGGGNFDDEGVHWYQQTPGQAPVLVVYDDTGRPSGIPERFSGSSSGNTATLTISRVEAGDEADYYCQAWDSSNDHPVFGGGTQLTVL
# B6: 2D1 antibody, IgG1 format (antibody, V domains shown)
# VH: QVQLVQSGAEVKKPGASVKVSCKVSGYTLNDFAMHWVRQAPGKGLEWMGGYVPEDGDTIYAQKFQGRVTMTEDTSTDTAYMELSSLRSEDTAVYYCATDPLYSGSLSYWGQGTTVTVSS
# VL: SYVLTQPPSVSVAPGQTARITCGGNNIESKSVHWYQQKPGQAPVLVVYDDSDRPSGIPERFSGSNSGNTATLTISRVEAGDEADYYCQVWDSNTDHWVFGGGTKVTVL
# B7: 5E1 antibody, IgG1 format (antibody, V domains shown)
# VH: B6 VH with P100Y, S103I, G104P
# VL: B6 VL
# B8: 6A8 antibody, IgG1 format (antibody, V domains shown)
# VH: B6 VH with S103P, G104P, S105G, S107Q, Y108P
# VL: B6 VL
# B9: 3E7 antibody, IgG1 format (antibody, V domains shown)
# VH: B6 VH with S103P, G104P, S105G, Y108P
# VL: B6 VL
# B10: 4D8 antibody, IgG1 format (antibody, V domains shown)
# VH: B6 VH with S103T, G104P, S105G, S107Y, Y108V
# VL: B6 VL
# B11: 7B5 antibody, IgG1 format (antibody, V domains shown)
# VH: B6 VH
# VL: B6 VL with N93G, T94P, D95V, H96W, V98I, V105L
# B12: G2 antibody, IgG1 format (antibody, V domains shown)
# VH: QVQLVQSGAEVKKPGASVKVSCRASGYALTELSIHWVRQAPGKGLEWMGGFDPEDGETIYAQNFQGRVIMTEDTSTDTAYMELSSLKSEDTAVYYCATDLTGSRDSWGQGTLVTVSS
# VL: QSVLTQPASVSGSPGQSITISCTGSRSDIGYYNYVSWYQQHPGKVPKLIIYDVTERPSGVSDRFSGSKSANTASLTISGLQAEDEADYYCSSFSSGDTFVVFGGGTKLTVL
# B13: D1 scFv (scFv)
# chain: EVQLVQSGPEVKKPGATVKISCNVSAETFTDYYIHWVKQAPGRGLEWMGLVDSEEDGETLFAETFRGRVALTADRSTNTAYMELRSLRHDDTAVYYCAAEYGEYGFFQSWGQGTLVTVSSQSVLTQPPSVSGAPGQRVTISCTGSSSNIGADYDVNWYQQLPGTSPKLLIYGDINRPSGVPDRFSASKSGTSASLAITGLQAEDEADYYCQSFDNSLSGSVIFGGGTKLTVL
# B14: H11 scFv (scFv)
# chain: QVQLVQSGAEVKKPGSSVKVSCKASGGISDNYALSWVRQAPGQGLEWMGGFIPLVDTTNYAQRFQGRLTITADDSMSTVYMELRSLRSDDTAMYYCAREQVAVGPGPTSDRGPDGLDVWGQGTMVTVSSQSVLTQPSSVSGAPGHRVTISCTGSNSNLGADYDVHWYQQLPGSAPKLLIYDNNIRPSGVPARFSGSKSGTSASLAITGLQAEDEADYYCQSYDTGLTSSDVIFGGGTKLTVL
# B15: E6 scFv (scFv)
# chain: QVQLVQSGAEVEKPGASVKVSCRVSGYPLTEIAIHWVRQAPGKGLEWMGSFEPEDAEAIYAQRFQGRVTMTEETSANTAYMELSSLRSEDTAVYFCATDPYYASSGSNYMEVWGRGTLVTVSSNFMLTQPHSVSESPGKTVTISCTGSGGSISSNYVQWYRQRPGSAPSTVIYEDDQRPSGVPDRISGSIDSSSNSASLTISGLTTEDEADYYCHSYDGNNRWVFGGGTKLTVL
# B16: C8 scFv (scFv)
# chain: QVQLVESGGGVVQPGRSLRLSCAASGFTFSSYAMHWVRQAPGKGLEWVAVISYDGSNKYYADSVKGRFTISRDNSKNTLYLQMNSLRAEDTAVYYCARETFPHYYYYYMDVWGRGTLVTVSSSYVLTQPPSVSVAPGQTARITCEGDDTDIGTVNWYQQKPGQAPVLVISEDGYRPSGIPERFSGSNSGNTATLTISRVEAGDEADYYCQFWDVDSDHPVFGGGTQLTVL
# B17: E7 scFv (scFv)
# chain: QVQLVQSGAEVKKPGSSVKVSCKISGGISDNYALSWVRQAPGQGLEWMGAVIPLVETTSYAQRFQGRLTITADDSLNTLYMELGSLRSDDTAMYYCAREQVAVGPGPTSNRGPDGLDVWGRGTMVTVSSQSVLTQPPSVSGAPGQRVTISCTGSSSNIGDGYDVHWYQQLPGTAPKLLIYGNSNRPSGVPDRFSGSTSGTSASLAIRGLQSEDEADYYCGTWDDILNGWVFGGGTKLTVL
# B18: CG11 scFv (scFv)
# chain: QVQLVQSGTEVKKPGATVNVSCKISGHLFTDYYIHWVQQAPGKGLEWVGLIDPKDGEIQYAEKFQARVTITADTSTDTVYMELNSLRSEDTAVYYCATEVLSGIRVFPFDPWGQGTLVTVSSQSVLTQPPSVSGAPGQRVTISCTGSSSNIGAGYDVYWYQQFPGKAPKLLIYDTNNRPPGVPDRFSGSKSGTSASLAISGLQTEDEADYYCQSYDIALSNSNVVFGGGTKLTVL
# B19: 7B5 scFv (scFv)
# chain: QVQLVQSGAEVKKPGASVKVSCKVSGYTLNDFAMHWVRQAPGKGLEWMGGYVPEDGDTIYAQKFQGRVTMTEDTSTDTAYMELSSLRSEDTAVYYCATDPLYSGSLSYWGQGTTVTVSSSYVLTQPPSVSVAPGQTARITCGGNNIESKSVHWYQQKPGQAPVLVVYDDSDRPSGIPERFSGSNSGNTATLTISRVEAGDEADYYCQVWDSGPVWWIFGGGTKLTVL
# B20: 1D9 scFv (scFv)
# chain: QVQLVQSGAEVKKPGASVKVSCKVSGYTLTEFAMHWVRQAPGKGLEWMGGFVPEDGETIYAQKFQGRVTMTEDTSTDTAYMELSSLRSEDTAVYYCATDPLYTPGLEPWGQGTTVTVSSSYVLTQPPSVSVAPGQTARITCGGNNIESKSVHWYQQKPGQAPVLVVYDDSDRPSGIPERFSGSNSGNTATLTISRVEAGDEADYYCQVWDSNTDHWVFGGGTKLTVL
# B21: 4D8 scFv (scFv)
# chain: B20 chain with T30N, E31D, F51Y, E57D, E107Y, P108V, L224V
# B22: 1E4 scFv (scFv)
# chain: B20 chain with T103E, P104G, G105S, L106F, E107S, P108V
# B23: 6A8 scFv (scFv)
# chain: B20 chain with T30N, E31D, F51Y, E57D, T103P, E107Q, L224V
# B24: 3E7 scFv (scFv)
# chain: B20 chain with T30N, E31D, F51Y, E57D, T103P, E107S, L224V
# B25: 5E1 scFv (scFv)
# chain: B19 chain with P100Y, S103I, G104P, G212N, P213T, V214D, W215H, I217V, L224V
# Biological target: T1, recombinant human RANTES (huRANTES, …)
# Test: cell-based or functional assay
"Chemotaxis IC50 (nM), 1 nM huRANTES; L1.2-hCCR5 cells; IgG1 format [nM]","Calcium Flux IC50 (nM), 10 nM rhuRANTES; L1.2-hCCR5 cells; IgG1 format [nM]","Chemotaxis IC50 (nM), 0.2 nM huRANTES; L1.2-hCCR5 cells; IgG1 format [nM]",Binder
17,,,B1
13.2,,,B2
29,7.7,,B3
14,12.7,,B4
16,,,B5
1.7,,1.3,B6
0.82,,0.25,B7
0.74,,0.31,B8
0.68,,0.25,B9
1.16,,0.22,B10
1.1,,0.31,B11
18.4,,,B12

# Biological target: T1, recombinant human RANTES (huRANTES, …)
# Test: cell-based or functional assay
# Remark: another data set of the same source
row,"Chemotaxis IC50 (nM); L1.2 cells expressing hCCR5, 1 nM huRANTES; scFv format [nM]",Binder
1,22,B13
2,4.3,B14
3,72,B15
4,90,B16
5,3.8,B17
6,3.6,B18
7,1.6,B19
8,0.82,B20
9,0.08,B21
10,1.25,B22
11,0.94,B23
12,0.47,B24
13,0.2,B25
